Among the data in PMC7563377 are Kd values, retold here.

For the data set, the target named is PSMA (prostate-specific membrane antigen) (UniProt Q04609). As to the kind of experiment: SPR. As to conditions: 2'-fluoro modified ('2F-modified', positions not stated); 3' spacer-NH2 coupled to DSPE-PEG-NHS nanoparticle; OpenSPR, carboxyl chip with amine coupling, running buffer PBS pH 7.4, 20 uL/min; temperature not stated.
UniProt Q04609, sequence (Q04609 44-750): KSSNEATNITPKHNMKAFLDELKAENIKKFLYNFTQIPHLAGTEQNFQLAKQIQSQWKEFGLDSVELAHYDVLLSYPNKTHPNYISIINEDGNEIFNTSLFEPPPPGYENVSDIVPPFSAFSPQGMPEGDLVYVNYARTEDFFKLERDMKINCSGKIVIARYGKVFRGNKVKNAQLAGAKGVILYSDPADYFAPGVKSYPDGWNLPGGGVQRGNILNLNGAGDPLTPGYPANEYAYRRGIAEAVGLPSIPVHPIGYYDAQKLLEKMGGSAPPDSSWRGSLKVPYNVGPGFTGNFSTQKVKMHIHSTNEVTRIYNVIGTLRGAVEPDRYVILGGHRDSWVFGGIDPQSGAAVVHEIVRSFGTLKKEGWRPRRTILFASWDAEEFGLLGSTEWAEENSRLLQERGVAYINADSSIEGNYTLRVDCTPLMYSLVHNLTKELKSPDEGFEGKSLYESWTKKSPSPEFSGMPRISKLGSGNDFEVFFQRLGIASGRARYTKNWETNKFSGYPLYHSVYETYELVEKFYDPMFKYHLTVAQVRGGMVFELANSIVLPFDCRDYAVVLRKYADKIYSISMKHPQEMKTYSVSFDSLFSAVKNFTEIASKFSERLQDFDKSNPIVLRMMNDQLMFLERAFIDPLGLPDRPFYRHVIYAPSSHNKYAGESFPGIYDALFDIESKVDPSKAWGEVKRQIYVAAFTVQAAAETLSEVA

Regarding GGGAGGACGAUGCGGAUCAGCCAUGUUUACGUCACUCCU, the Kd (as a rule, a measure of binding affinity in units of concentration) is 602 nM.
